{"source": "paper PMC3818214", "about": "“Novel Disulfide Bond-Mediated Dimerization of the CARD Domain Was Revealed by the Crystal Structure of CARMA1 CARD” (PLoS ONE, 2013)", "molecular_target": "the molecule itself", "assay": "SEC-MALS; Superdex 200 HR 10/30, 20 mM Tris HCl, 150 mM NaCl, without DTT; mini-DAWN EOS and Optilab DSP detectors"}
{"protein": "mouse CARMA1 CARD (amino acids 14-109) with C-terminal His-tag (domain or fragment, UniProt Q8CIS0 14-109, looked up, CARMA1 (CARD11), mouse, CARD domain, amino acids 14-109; the solution experiments used the plain protein; Model built from residue 22 to 108, loop 64-70 missing; Vector pOKD (home-made); also called CARD11 CARD; not shown: His-tag, C-terminal, kept) TLKDEEEALWDNVECNRHMLSRYINPAKLTPYLRQCKVIDEQDEDEVLNAPMLPSKINRAGRLLDILHTKGQRGYVVFLESLEFYYPELYKLVTGK", "values": [{"measurement": "stoichiometry N", "result": 2}]}
